Assay results published in patent US20190300603A1 (CRESCENDO BIOLOGICS, published 2019).

Molecular target: T1, recombinant human IL-17A (human, UniProt Q16552 24-155)
T1 construct: also called Peprotech cat# AF-200-17
T1 sequence: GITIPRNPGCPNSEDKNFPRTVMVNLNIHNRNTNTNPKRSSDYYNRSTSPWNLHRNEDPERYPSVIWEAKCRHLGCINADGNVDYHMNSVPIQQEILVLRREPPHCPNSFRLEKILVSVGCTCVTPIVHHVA
Assay: ELISA

B1: VH domain as identified in SEQ ID NO: 1 (optimised anti-IL-17A single VH domain antibody) (VHH)
VHH: EVQLVESGGGLVQPGGSLRLSCAASGFTFSSYSMYWVRQAPGKGLEWVAEIKQDGSVQYYVSDVKGRFTISRDNAKNSLYLQMNSLRAEDTAVYYCAKGEILPLYFDYWGQGTLVTVSS
notes: Human VH single domain antibody (Humabody VH) without a light chain, from Tg/TKO mice and then optimised
binding result: binds
